# Laboratory results reported in PMC5673899, “Structural basis for receptor recognition of pollen tube attraction peptides” (Nature Communications, 2017).
# Entries after “also recorded” stand apart in the source; their conditions may differ.
# What was measured:
# PRK6 N239A = test: In vitro pull-down with AtPRK6^LRR mutant N239A; assay type: binding, Arabidopsis thaliana
# Source text: (§1) The genes of AtPRK3 ^LRR (residues 1–241), AtPRK4 ^LRR (residues 1–277), AtPRK5 ^LRR (residues 1–279), AtPRK6 ^LRR (residues 1–262), MIK1 ^LRR (residues 1–633), MIK2 ^LRR (residues 1–707) were amplified from Arabidopsis cDNA library by PCR and cloned into pFastBac-1 vector with a C-terminal 6 × His-tag. Their identities were confirmed by sequencing. The mature form of AtLURE1.1 (residues 20–94), AtLURE1.2 (residues 20–90), AtLURE1.3 (residues 21–91), and AtLURE1.4 (residues 20–90) were cloned into pFastBac-1 vector, with a modified N-terminal hemolin signal peptide and 6 × His-SUMO tag. Point mutation constructs were generated by QuickChange Site-Directed Mutagenesis Kit (Strategene). All the proteins were expressed using the Bac-to-Bac baculovirus expression system (Invitrogen) in High Five cells at 22 °C. One liter of High Five cells (2.0 × 10^6 cells mL^−1) cultured in the medium from Expression Systems was infected with 25 ml recombinant baculovirus and the media was collected after 72 h of infection. Secreted LRR proteins were purified using Ni-NTA (Novagen) and size-exclusion chromatography (Hiload 200, GE Healthcare) in buffer containing 10 mM Bis-Tris pH 6.0 and 100 mM NaCl. […]
# (§2) The purified His-tagged ectodomains of AtPRK proteins and MIK1, 2 were used to pull-down the AtLURE1.2 peptide. […] All the eluted samples were analyzed by SDS-PAGE and visualized by Coomassie blue staining. […]
# AtPRK3^LRR = test: ITC, AtLURE1.2 titrated into AtPRK3^LRR; assay type: binding, Arabidopsis; details: 25 °C, 200 mM HEPES pH 7.0, 100 mM NaCl, ~0.9 mM AtLURE1.2 into 0.08 mM AtPRK3^LRR
# Source text: as §1, with “NaCl. The His-SUMO tag of the AtLURE proteins was removed by Prescission Protease at 4 °C overnight in buffer containing 25 mM Tris pH 8.0 and 150 mM NaCl.” for “NaCl.”
# [1] = tested on: prk3 deletion pollen tubes; details: cited from earlier work
# Source text: (§3) The DEFL peptide SCR9 that is involved in self-recognition in self-incompatibility induces homodimerization of its receptor SRK9 (ref. [34]).
# [2] = tested on: prk6 knockout pollen tubes; details: cited from earlier work
# Source text: as §3
# AtPRK6^LRR = test: Gel filtration assay with AtPRK6^LRR; assay type: binding, Arabidopsis thaliana
# Source text: as §1, with “NaCl. The His-SUMO tag of the AtLURE proteins was removed by Prescission Protease at 4 °C overnight in buffer containing 25 mM Tris pH 8.0 and 150 mM NaCl.” for “NaCl.”
# MIK2^LRR = test: ITC, AtLURE1.2 titrated into MIK2^LRR; assay type: binding, Arabidopsis; details: 25 °C, 200 mM HEPES pH 7.0, 100 mM NaCl, as for MIK1LRR (0.5 mM AtLURE1.2 into 0.05 mM)
# Source text: as §1
# Supplementary Figure 6: Binding affinity between MIK1LRR, MIK2LRR and AtLURE1.2 was not detected in ITC assay. […]
# MIK1^LRR = test: In vitro pull-down with MIK1^LRR; assay type: binding, Arabidopsis; details: Ni-NTA, excess AtLURE1.2, on ice 30 min, washed five times; SDS-PAGE, Coomassie blue
# Source text: as §1, §2
molecule,measurement,setting,value
"AtLURE1.2: mature form of AtLURE1.2 (residues 20–90), defensin-like cysteine-rich peptide expressed in insect cells (protein, left off: His6, N-terminal, cleaved | SUMO, N-terminal, cleaved, mature form of AtLURE1.2 (residues 20–90), defensin-like cysteine-rich peptide expressed in insect cells) TLINGSSDEERTYSFSPTTSPFDPRSLNQELKIGRIGYCFDCARACMRRGKYIRTCSFERKLCRCSISDIK",AtLURE1.2 binding activity of receptor mutant,PRK6 N239A,still retained the AtLURE1.2 binding activity
same,binding in ITC,AtPRK3^LRR,"none of the purified AtPRK3^LRR, MIK1^LRR or MIK2^LRR proteins showed detectable interaction"
same,responsiveness of pollen tubes to AtLURE1.2,[1],little effect
same,pollen tube reorientation toward AtLURE1.2,[2],completely abolished
same,effect on monomeric state of AtPRK6^LRR in solution,AtPRK6^LRR; gel filtration,did not alter the monomeric status; also recorded: does not alter the monomeric state
same,complex formation in gel filtration,"AtPRK6^LRR; purified proteins mixed at molar ratio about 1:3, 4 °C 30 min, 10 mM Bis-Tris pH 6.0, 100 mM NaCl",formed a stable complex
same,binding in ITC,MIK2^LRR,"not detected; also recorded: no obvious heat was produced; also recorded: none of the purified AtPRK3^LRR, MIK1^LRR or MIK2^LRR proteins showed detectable interaction"
same,interaction in pull-down assay,MIK1^LRR,none of the other LRR proteins was found to interact
